This note sets out measurements from the RNAGym collection of RNA variant scans (doi:10.7554/elife.90254).

First the molecules themselves.
B1: LINE1-mini (parent)
chain: GGCAGAGCUCAACACAGCGUGGCAAAGUGGCUGUGGCUAGACUGCC

In this data set the parent is B1. Nature of the data set: self-cleavage, relative activity (ratio to wild type); higher = more cleavage; in vitro, sequencing; the parent is a self-cleaving ribozyme.
For the variant GGCAGAGAUCAACACCGCGUGGCAAAGUGGCUGUGGCUAGACUGCC, the self-cleavage is 0.25.

Take GGCAGAGAUCAACACUGCGUGGCAAAGUGGCUGUGGCUAGACUGCC: the self-cleavage stood at 0.23. In the case of GGCAGAGAUCAACACGGCGUGGCAAAGUGGCUGUGGCUAGACUGCC, the self-cleavage was found to be 0.22. As to GGCAGAGAUCAACUCAGCGUGGCAAAGUGGCUGUGGCUAGACUGCC, the self-cleavage was found to be 0.25. Turning to GGCAGAGAUCAACCCAGCGUGGCAAAGUGGCUGUGGCUAGACUGCC, the self-cleavage was 0.18. With GGCAGAGAUCAACGCAGCGUGGCAAAGUGGCUGUGGCUAGACUGCC, the self-cleavage worked out at 0.56. As to GGCAGAGAUCAACACAGCGUGGCCAAGUGGCUGUGGCUAGACUGCC, the self-cleavage was 0.31. The value for GGCAGAUCUCAACACAGCGAGGCAAAGUGGCUGUGGCUAGACUGCC was 0.06; that for GGCAGAUCUCAACACAGCGCGGCAAAGUGGCUGUGGCUAGACUGCC was 0.07. The value for GGCAGAUCUCAACACAGCGGGGCAAAGUGGCUGUGGCUAGACUGCC was 0.08; that for GGCAGAUCACAACACAGCGUGGCAAAGUGGCUGUGGCUAGACUGCC was 0.23; that for GGCAGAUCCCAACACAGCGUGGCAAAGUGGCUGUGGCUAGACUGCC was 0.04. Regarding GGCAGAUCGCAACACAGCGUGGCAAAGUGGCUGUGGCUAGACUGCC, the self-cleavage worked out at 0.09.

On to GGCAGAUCUCAACACAGCGUGGCAAAGUGGCUGUGCCUAGACUGCC, for which the self-cleavage amounted to 0.09. Turning to GGCAGAUCUCAACACAGCGUGGCAAAGUGGCUGUGUCUAGACUGCC, the self-cleavage was found to be 0.05.

For the variant GGCAGAUCUCAACACAGCGUGGCAAAGUGGCUGUGACUAGACUGCC, the self-cleavage was 0.11. On to GGCAGAUCUCAACACAGCGUGGCAAAGUGGCUUUGGCUAGACUGCC, for which the self-cleavage was 0.13.

Consider GGCAGAUCUCAACACAGCGUGGCAAAGUGGCUCUGGCUAGACUGCC, for which the self-cleavage worked out at 0.15. Consider GGCAGAUCUCAACACAGCGUGGCAAAGUGGCUAUGGCUAGACUGCC, for which the self-cleavage is 0.13. Regarding GGCAGAUCUCAACACAGCGUGGCAAAGUCGCUGUGGCUAGACUGCC, the self-cleavage is 0.03. As to GGCAGAUCUCAACACAGCGUGGCAAAGUAGCUGUGGCUAGACUGCC, the self-cleavage turned out to be 0.06. Take GGCAGAUCUCAACACAGCGUGGCAAAGUUGCUGUGGCUAGACUGCC: the self-cleavage amounted to 0.15. On to GGCAGAGAUCAUCACAGCGUGGCAAAGUGGCUGUGGCUAGACUGCC, for which the self-cleavage was 0.23.

Consider GGCAGAGAUCACCACAGCGUGGCAAAGUGGCUGUGGCUAGACUGCC, for which the self-cleavage is 0.04. With GGCAGAGAUCAGCACAGCGUGGCAAAGUGGCUGUGGCUAGACUGCC, the self-cleavage is 0.11.

With GGCAGAGAUCAACACAGCGUGGCAAAGUGGCUGUGGCUAGACUGCC, the self-cleavage was found to be 0.29.

Consider GGCAGAUCUCAACACAGCGUGGCAAAGUGGCUGUUGCUAGACUGCC, for which the self-cleavage is 0.1. Take GGCAGAUCUCAACACAGCGUGGCAAAGUGGCUGUAGCUAGACUGCC: the self-cleavage was 0.1. In the case of GGCAGAUCUCAACACAGCGUGGCAAAGUGGCUGUCGCUAGACUGCC, the self-cleavage came to 0.08. As to GGCAGAUCUCAACACAGCGUGGCAAAGUGGCUGUGGCUAAACUGCC, the self-cleavage was determined as 0.16. Turning to GGCAGAUCUCAACACAGCGUGGCAAAGUGGCUGUGGCUAUACUGCC, the self-cleavage worked out at 0.18. On to GGCAGAUCUCAACACAGCGUGGCAAAGUGGCUGUGGCUACACUGCC, for which the self-cleavage came out at 0.12.

With GGCAGAUCUCAACACAGCGUGGCAAAGUGGCUGUGGCCAGACUGCC, the self-cleavage is 0.05. On to GGCAGAUCUCAACACAGCGUGGCAAAGUGGCUGUGGCAAGACUGCC, for which the self-cleavage came to 0.04. On to GGCAGAUCUCAACACAGCGUGGCAAAGUGGCUGUGGCGAGACUGCC, for which the self-cleavage amounted to 0.03. For the variant GGCAGAUCUCAACACAGCGUGGCAAAGUGACUGUGGCUAGACUGCC, the self-cleavage turned out to be 0.11.

With GGCAGAUCUCAACACAGCGUGGCAAAGUGUCUGUGGCUAGACUGCC, the self-cleavage amounted to 0.1.

As for GGCAGAUCUCAACACAGCGUGGCAAAGUGCCUGUGGCUAGACUGCC, the self-cleavage is 0.06. The value for GGCAGAUCUCAACACAGCGUGGCAAAGUGGCUGUGGCUAGACAGCC was 0.11; that for GGCAGAUCUCAACACAGCGUGGCAAAGUGGCUGUGGCUAGACCGCC was 0.18. Consider GGCAGAUCUCAACACAGCGUGGCAAAGUGGCUGUGGCUAGACGGCC, for which the self-cleavage was 0.32. Consider GGCAGAGAUCGACACAGCGUGGCAAAGUGGCUGUGGCUAGACUGCC, for which the self-cleavage was found to be 0.04. On to GGCAGAGAUCUACACAGCGUGGCAAAGUGGCUGUGGCUAGACUGCC, for which the self-cleavage came out at 0.03. The value for GGCAGAGAUCCACACAGCGUGGCAAAGUGGCUGUGGCUAGACUGCC was 0.05. GGCAGAUCUCAACACAGCGUGGCAAAGUGGCUGUGGCUAGACUACC: the self-cleavage was found to be 0.09. The value for GGCAGAUCUCAACACAGCGUGGCAAAGUGGCUGUGGCUAGACUCCC was 0.13; that for GGCAGAUCUCAACACAGCGUGGCAAAGUGGCUGUGGCUAGACUUCC was 0.2; that for GGCAGAUCUCAACACAGCGUGGCAAAGCGGCUGUGGCUAGACUGCC was 0.05. As to GGCAGAUCUCAACACAGCGUGGCAAAGGGGCUGUGGCUAGACUGCC, the self-cleavage worked out at 0.07. On to GGCAGAUCUCAACACAGCGUGGCAAAGAGGCUGUGGCUAGACUGCC, for which the self-cleavage is 0.03. For GGCAGAUCUCAACACAGCGUGGCAAAGUGGCUGGGGCUAGACUGCC, the self-cleavage turned out to be 0.05. Turning to GGCAGAUCUCAACACAGCGUGGCAAAGUGGCUGAGGCUAGACUGCC, the self-cleavage was found to be 0.08. The value for GGCAGAUCUCAACACAGCGUGGCAAAGUGGCUGCGGCUAGACUGCC was 0.09; that for GGCAGAUCUCAACACAGCGUGGCAAAGUGGCAGUGGCUAGACUGCC was 0.08. Consider GGCAGAUCUCAACACAGCGUGGCAAAGUGGCCGUGGCUAGACUGCC, for which the self-cleavage stood at 0.22. With GGCAGAUCUCAACACAGCGUGGCAAAGUGGCGGUGGCUAGACUGCC, the self-cleavage amounted to 0.11.
